Test [1] deals with T1, human ASCT2 (system ASC amino acid transporter 2), endogenous on human tumour cell lines (human, UniProt Q15758 1-541).
T1 construct: Endogenous ASCT2 of cell lines KMS-11 (stated to express ASCT2 mRNA), WiDr and OPM-2; also called SLC1A5; ASCT2 on KMS-11, OPM-2, WiDr cells
T1 sequence: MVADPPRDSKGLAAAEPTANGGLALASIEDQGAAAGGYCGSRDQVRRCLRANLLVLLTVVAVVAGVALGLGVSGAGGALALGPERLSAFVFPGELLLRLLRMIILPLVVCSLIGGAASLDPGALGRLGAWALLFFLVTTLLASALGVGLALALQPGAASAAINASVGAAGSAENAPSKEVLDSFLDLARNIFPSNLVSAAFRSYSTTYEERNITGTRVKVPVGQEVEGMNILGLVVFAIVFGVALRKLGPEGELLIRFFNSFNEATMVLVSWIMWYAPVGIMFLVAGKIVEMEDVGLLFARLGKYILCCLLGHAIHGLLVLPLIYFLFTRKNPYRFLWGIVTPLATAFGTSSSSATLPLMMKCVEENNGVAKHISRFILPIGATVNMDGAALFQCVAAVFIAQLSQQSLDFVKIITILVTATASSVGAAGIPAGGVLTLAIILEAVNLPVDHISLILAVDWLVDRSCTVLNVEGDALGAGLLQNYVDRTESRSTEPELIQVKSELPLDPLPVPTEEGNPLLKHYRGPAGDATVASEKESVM
The experiment in a line: flow cytometry on KMS-11 cells.

Test [2] concerns the target T2, mouse EL4 type ASCT2-myc/His (mouse/human chimeric ASCT2), expressed on CHO cells (human/mouse chimera, UniProt Q15758 1-541).
T2 construct: also called mEL4/CHO; mEL4
T2 sequence: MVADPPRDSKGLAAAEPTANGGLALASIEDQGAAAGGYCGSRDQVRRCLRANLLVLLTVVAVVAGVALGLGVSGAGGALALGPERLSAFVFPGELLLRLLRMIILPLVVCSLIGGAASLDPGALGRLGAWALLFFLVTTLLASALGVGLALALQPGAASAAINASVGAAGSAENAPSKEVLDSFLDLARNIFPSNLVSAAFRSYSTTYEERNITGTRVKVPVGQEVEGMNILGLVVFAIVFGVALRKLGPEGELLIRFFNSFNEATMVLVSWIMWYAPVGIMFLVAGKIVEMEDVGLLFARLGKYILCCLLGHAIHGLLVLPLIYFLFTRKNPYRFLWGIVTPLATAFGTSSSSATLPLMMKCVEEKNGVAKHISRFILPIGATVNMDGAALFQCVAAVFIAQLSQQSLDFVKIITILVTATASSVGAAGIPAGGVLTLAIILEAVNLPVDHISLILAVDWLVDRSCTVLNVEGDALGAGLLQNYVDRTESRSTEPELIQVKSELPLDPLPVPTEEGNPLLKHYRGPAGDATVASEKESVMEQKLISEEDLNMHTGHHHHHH
Put plainly: flow cytometry on mEL4/CHO cells; '+' = presence of reactivity. On the procedure: (§1) Using the mouse ASCT2/CHO and mouse/human chimeric ASCT2/CHO cells constructed in Examples 10 and 11 and FITC-labeled anti-mouse immunoglobulin G (H+L) (manufactured by Dako) or ALEXA488-labeled anti-rat immunoglobulin G […] (manufactured by Invitrogen) as the secondary antibody, the reactivity of anti-ASCT2 monoclonal antibodies KM4008, KM4012 and KM4018 was measured in the same manner as in Example 9(1).
(§2) In Table 2, the symbols “+”, “−”, and “±” represent the presence of reactivity, the absence of reactivity, and the decrease in reactivity, respectively.

Test [3] deals with T3, human ASCT2-myc/His (fusion protein in which myc/His was added to the C-terminal of human ASCT2), expressed … (human, UniProt Q15758 1-541).
T3 construct: Amino acid transporter with C-terminal myc/His tag, stably expressed in CHO/DG44 cells; cell lysates of these cells were used for Western blotting and immunoprecipitation; also called ASCT2/CHO; human ASCT2-myc/His gene-introduced CHO cell
T3 sequence: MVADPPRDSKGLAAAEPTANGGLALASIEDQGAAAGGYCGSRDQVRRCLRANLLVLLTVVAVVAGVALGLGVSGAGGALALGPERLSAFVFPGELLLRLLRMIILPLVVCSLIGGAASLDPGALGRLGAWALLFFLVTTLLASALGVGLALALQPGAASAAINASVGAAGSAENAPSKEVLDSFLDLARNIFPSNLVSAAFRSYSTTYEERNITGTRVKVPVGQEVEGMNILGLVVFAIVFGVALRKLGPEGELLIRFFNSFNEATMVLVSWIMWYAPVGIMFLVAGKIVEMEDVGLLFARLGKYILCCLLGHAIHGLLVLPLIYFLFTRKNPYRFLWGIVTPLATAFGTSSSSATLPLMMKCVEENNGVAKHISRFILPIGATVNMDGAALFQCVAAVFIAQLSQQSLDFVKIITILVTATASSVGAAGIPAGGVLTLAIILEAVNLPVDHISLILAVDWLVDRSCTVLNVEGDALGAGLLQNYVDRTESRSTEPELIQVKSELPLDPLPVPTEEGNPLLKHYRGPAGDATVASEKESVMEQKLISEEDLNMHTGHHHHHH
The experiment in a line: flow cytometry on human ASCT2/CHO cells; '+' = presence of reactivity.

Test [4] addresses T4, mouse EL2 type ASCT2-myc/His (mouse/human chimeric ASCT2), expressed on CHO cells (human/mouse chimera).
T4 construct: also called mEL2/CHO; mEL2
T4 chain: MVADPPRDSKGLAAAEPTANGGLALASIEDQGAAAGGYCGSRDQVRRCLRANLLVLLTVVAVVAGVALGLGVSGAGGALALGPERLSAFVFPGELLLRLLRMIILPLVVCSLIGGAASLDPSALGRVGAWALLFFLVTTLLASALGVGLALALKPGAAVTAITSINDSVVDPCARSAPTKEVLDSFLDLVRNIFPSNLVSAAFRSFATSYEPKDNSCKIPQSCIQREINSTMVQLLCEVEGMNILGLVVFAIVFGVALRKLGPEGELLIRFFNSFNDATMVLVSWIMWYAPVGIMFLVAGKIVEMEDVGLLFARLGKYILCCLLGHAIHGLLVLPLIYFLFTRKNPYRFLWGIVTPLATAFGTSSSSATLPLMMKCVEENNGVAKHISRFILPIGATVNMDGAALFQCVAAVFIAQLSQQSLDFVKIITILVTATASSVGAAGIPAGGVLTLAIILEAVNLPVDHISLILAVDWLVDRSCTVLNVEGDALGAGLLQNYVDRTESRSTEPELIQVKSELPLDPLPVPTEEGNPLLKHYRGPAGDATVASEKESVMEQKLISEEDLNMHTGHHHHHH
The experiment in a line: flow cytometry on mEL2/CHO cells; '-' represents the absence of reactivity. On the procedure:
as §1, §2

Test [5] concerns the target T5, mouse ASCT2-myc/His, expressed on CHO cells (mouse, UniProt P51912 1-553).
T5 construct: also called mouse ASCT2/CHO
T5 sequence: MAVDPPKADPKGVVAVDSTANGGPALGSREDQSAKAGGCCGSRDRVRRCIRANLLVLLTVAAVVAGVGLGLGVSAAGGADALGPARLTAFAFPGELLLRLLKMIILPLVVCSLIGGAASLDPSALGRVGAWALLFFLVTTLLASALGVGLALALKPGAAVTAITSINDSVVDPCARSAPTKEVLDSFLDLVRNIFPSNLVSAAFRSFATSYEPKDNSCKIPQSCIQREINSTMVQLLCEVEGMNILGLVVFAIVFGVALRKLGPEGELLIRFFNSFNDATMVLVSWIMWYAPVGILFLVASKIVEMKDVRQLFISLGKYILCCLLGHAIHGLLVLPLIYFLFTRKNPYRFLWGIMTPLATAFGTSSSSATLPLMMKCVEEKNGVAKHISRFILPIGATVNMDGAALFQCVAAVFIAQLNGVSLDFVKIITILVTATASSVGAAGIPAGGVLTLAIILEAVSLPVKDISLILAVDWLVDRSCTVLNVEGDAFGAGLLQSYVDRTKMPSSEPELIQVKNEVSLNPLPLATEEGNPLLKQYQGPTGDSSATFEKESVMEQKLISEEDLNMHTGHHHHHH
The experiment in a line: flow cytometry on mouse ASCT2/CHO cells; '-' represents the absence of reactivity. On the procedure:
as §1, §2

B1: anti-ASCT2 monoclonal antibody KM4018 (antibody, rat IgG2a, V domains shown)
VH: EVQLVESGGGLVQSGRSIRLSCAASGFSFSNYYMAWVRQAPSKGLEWVASITKGGGNTYYRDSVKGRFTFSRDNAKSTLYLQMDSLRSEDTATYYCARQVTIAAVSTSYFDSWGQGVMVTVSS
VL: DIVLTQSPALAVSLGQRATISCKTNQKVDYYGNSYVYWYQQKPGQQPKLLIYLASNLASGIPARFSGRGSGTDFTLTIDPVEADDTATYYCQQSRNLPYTFGAGTKLELKR
notes: rat IgG2a, kappa
For B1, the binding result in test [1] is reported as “binds”; in test [2], “binds”; in test [3], “binds”; in test [4], “no binding”; in test [5], “no binding”.
